Patent US20110184016A1

Experiments:
[1] = target: human protease-activated receptor 2 (human) (UniProt P55085); experiment: cell-based or functional assay
[2] = target: T1, human protease-activated receptor 4 (human) (UniProt Q96RI0); experiment: cell-based or functional assay
T1 sequence (looked up): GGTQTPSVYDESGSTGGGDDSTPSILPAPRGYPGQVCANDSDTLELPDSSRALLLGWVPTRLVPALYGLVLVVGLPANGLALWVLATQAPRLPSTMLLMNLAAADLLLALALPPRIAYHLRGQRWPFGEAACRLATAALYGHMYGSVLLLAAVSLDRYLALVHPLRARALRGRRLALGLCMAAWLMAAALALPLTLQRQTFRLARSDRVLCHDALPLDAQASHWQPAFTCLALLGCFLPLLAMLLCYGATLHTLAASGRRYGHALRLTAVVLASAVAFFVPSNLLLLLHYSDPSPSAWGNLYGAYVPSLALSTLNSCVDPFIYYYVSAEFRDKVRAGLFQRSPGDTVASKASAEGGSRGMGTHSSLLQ

Chain of recombinant human cathepsin S (P25774 115-331): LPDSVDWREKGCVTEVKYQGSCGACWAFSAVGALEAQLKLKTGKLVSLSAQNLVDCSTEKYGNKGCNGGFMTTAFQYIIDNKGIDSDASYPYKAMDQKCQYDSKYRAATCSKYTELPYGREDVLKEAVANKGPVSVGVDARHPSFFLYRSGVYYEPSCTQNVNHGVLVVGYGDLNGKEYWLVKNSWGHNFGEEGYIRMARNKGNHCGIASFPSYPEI

calcium flux (ratiometric Fura-2 imaging, transfected HeLa cells) [1]: 30 nM | calcium flux (ratiometric Fura-2 imaging, transfected HeLa cells) [2]: 30 nM
Substance: recombinant human cathepsin S (from UniProt P25774 115-331) (enzyme)
